Experimental data: patent publication US20220289856A1 (IGM BIOSCIENCES, published 2022)
Positions count from the first letter of the chain named.

B1: anti-CD123×CD3 IgG #1 (bispecific antibody)
heavy 1: QVQLQQSGAEVKKPGASVKVSCKASGYTFTDYYMKWVKQSHGKSLEWMGDIIPSNGATFYNQKFKGKATLTVDRSTSTAYMELSSLRSEDTAVYYCARSHLLRASWFAYWGQGTLVTVSSASTKGPSVFPLAPSSKSTSGGTAALGCLVKDYFPEPVTVSWNSGALTSGVHTFPAVLQSSGLYSLSSVVTVPSSSLGTQTYICNVNHKPSDTKVDKKVEPKSCDKTHTCPPCPAPPVAGPSVFLFPPKPKDTLMISRTPEVTCVVVDVKHEDPEVKFNWYVDGVEVHNAKTKPREEEYNSTYRVVSVLTVLHQDWLNGKEYKCKVSNKALPAPIEKTISKAKGQPREPQVYTLPPSREEMTKNQVSLTCDVSGFYPSDIAVEWESDGQPENNYKTTPPVLDSDGSFFLYSKLTVDKSRWEQGDVFSCSVMHEALHNHYTQKSLSLSPGK
light: not shown
heavy 2: not shown
notes: Construct described in WO 2017/210443 A1, made by commercial vendors; also called bispecific anti-CD123×CD3 IgG #1; anti-CD123×anti-CD3 BiTE construct
B2: IGM #A-b-J*-H1 (bispecific antibody)
chain 1: EVQLVQSGAEVKKPGESLKISCKGSGYSFTDYYMKWARQMPGKGLEWMGDIIPSNGATFYNQKFKGQVTISADKSISTTYLQWSSLKASDTAMYYCARSHLLRASWFAYWGQGTMVTVSS
chain 2: DIVMTQSPDSLAVSLGERATINCESSQSLLNSGNQKNYLTWYQQKPGQPPKPLIYWASTRESGVPDRFSGSGSGTDFTLTISSLQAEDVAVYYCQNDYSYPYTFGQGTKLEIKR
chain 3: not shown
B3: anti-CD123 IgG #1 (antibody, V domains shown)
VH: QVQLQQSGAEVKKPGASVKVSCKASGYTFTDYYMKWVKQSHGKSLEWMGDIIPSNGATFYNQKFKGKATLTVDRSTSTAYMELSSLRSEDTAVYYCARSHLLRASWFAYWGQGTLVTVSS
VL: B2 chain 2 with I2F, E24K, S32T, P52L, S69T, Q106G
notes: Mono-specific IgG version of anti-CD123 #1; also called mono-specific IgG anti-CD123 construct
B4: anti-CD123 IgG #2 (antibody, V domains shown)
VH: QVQLVQSGAEVKKPGASVKVSCKASGYTFTSYWMNWVRQAPGQGLEWMGRIDPYDSETHYNQKFKDRVTMTVDKSTSTAYMELSSLRSEDTAVYYCARGNWDDYWGQGTTVTVSS
VL: EVVLTQSPATLSLSPGERATLSCRASKSISKDLAWYQQKPGQAPRLLIYSGSTLQSGIPARFSGSGSGTDFTLTISSLEPEDFAVYYCQQHNKYPYTFGGGTKVEIKR
notes: Mono-specific IgG version of anti-CD123 #2; also called mono-specific IgG anti-CD123 construct
B5: anti-CD123×CD3 IgM #1 (bispecific antibody)
heavy: QVQLQQSGAEVKKPGASVKVSCKASGYTFTDYYMKWVKQSHGKSLEWMGDIIPSNGATFYNQKFKGKATLTVDRSTSTAYMELSSLRSEDTAVYYCARSHLLRASWFAYWGQGTLVTVSSGSASAPTLFPLVSCENSPSDTSSVAVGCLAQDFLPDSITFSWKYKNNSDISSTRGFPSVLRGGKYAATSQVLLPSKDVMQGTDEHVVCKVQHPNGNKEKNVPLPVIAELPPKVSVFVPPRDGFFGNPRKSKLICQATGFSPRQIQVSWLREGKQVGSGVTTDQVQAEAKESGPTTYKVTSTLTIKESDWLSQSMFTCRVDHRGLTFQQNASSMCVPDQDTAIRVFAIPPSFASIFLTKSTKLTCLVTDLTTYDSVTISWTRQNGEAVKTHTNISESHPNATFSAVGEASICEDDWNSGERFTCTVTHTDLPSPLKQTISRPKGVALHRPDVYLLPPAREQLNLRESATITCLVTGFSPADVFVQWMQRGQPLSPEKYVTSAPMPEPQAPGRYFAHSILTVSEEEWNTGETYTCVVAHEALPNRVTERTVDKSTGKPTLYNVSLVMSDTAGTCY
light: not shown
chain: not shown
notes: also called Anti-CD123 XCD3 IgM #1
B6: anti-CD123×CD3 IgM #2 (bispecific antibody)
heavy: QVQLVQSGAEVKKPGASVKVSCKASGYTFTSYWMNWVRQAPGQGLEWMGRIDPYDSETHYNQKFKDRVTMTVDKSTSTAYMELSSLRSEDTAVYYCARGNWDDYWGQGTTVTVSSGSASAPTLFPLVSCENSPSDTSSVAVGCLAQDFLPDSITFSWKYKNNSDISSTRGFPSVLRGGKYAATSQVLLPSKDVMQGTDEHVVCKVQHPNGNKEKNVPLPVIAELPPKVSVFVPPRDGFFGNPRKSKLICQATGFSPRQIQVSWLREGKQVGSGVTTDQVQAEAKESGPTTYKVTSTLTIKESDWLSQSMFTCRVDHRGLTFQQNASSMCVPDQDTAIRVFAIPPSFASIFLTKSTKLTCLVTDLTTYDSVTISWTRQNGEAVKTHTNISESHPNATFSAVGEASICEDDWNSGERFTCTVTHTDLPSPLKQTISRPKGVALHRPDVYLLPPAREQLNLRESATITCLVTGFSPADVFVQWMQRGQPLSPEKYVTSAPMPEPQAPGRYFAHSILTVSEEEWNTGETYTCVVAHEALPNRVTERTVDKSTGKPTLYNVSLVMSDTAGTCY
light: EVVLTQSPATLSLSPGERATLSCRASKSISKDLAWYQQKPGQAPRLLIYSGSTLQSGIPARFSGSGSGTDFTLTISSLEPEDFAVYYCQQHNKYPYTFGGGTKVEIKRTVAAPSVFIFPPSDEQLKSGTASVVCLLNNFYPREAKVQWKVDNALQSGNSQESVTEQDSKDSTYSLSSTLTLSKADYEKHKVYACEVTHQGLSSPVTKSFNRGEC
chain: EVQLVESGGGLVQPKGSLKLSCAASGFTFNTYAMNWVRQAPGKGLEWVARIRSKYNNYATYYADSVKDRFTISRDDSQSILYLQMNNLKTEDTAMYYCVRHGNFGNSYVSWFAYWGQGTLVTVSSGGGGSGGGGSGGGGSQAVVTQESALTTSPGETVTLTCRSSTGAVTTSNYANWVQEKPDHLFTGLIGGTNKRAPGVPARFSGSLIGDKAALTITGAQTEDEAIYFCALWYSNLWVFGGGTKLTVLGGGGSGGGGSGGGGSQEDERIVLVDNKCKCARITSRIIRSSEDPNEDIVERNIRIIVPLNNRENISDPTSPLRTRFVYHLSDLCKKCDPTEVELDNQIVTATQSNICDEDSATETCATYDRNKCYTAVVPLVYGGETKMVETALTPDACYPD
B7: IGM #B-b-J*-H1 (bispecific antibody)
VH: QIQLVQSGPELKKPGETVKISCKASGYIFTNYGMNWVKQAPGKSFKWMGWINTYTGESTYSADFKGRFAFSLETSASTAYLHINDLKNEDTATYFCARSGGYDPMDYWGQGTSVTVSS
VL: DIVLTQSPASLAVSLGQRATISCRASESVDNYGNTFMHWYQQKPGQPPKLLIYRASNLESGIPARFSGSGSRTDFTLTINPVEADDVATYYCQQSNEDPPTFGAGTKLELK
J-chain: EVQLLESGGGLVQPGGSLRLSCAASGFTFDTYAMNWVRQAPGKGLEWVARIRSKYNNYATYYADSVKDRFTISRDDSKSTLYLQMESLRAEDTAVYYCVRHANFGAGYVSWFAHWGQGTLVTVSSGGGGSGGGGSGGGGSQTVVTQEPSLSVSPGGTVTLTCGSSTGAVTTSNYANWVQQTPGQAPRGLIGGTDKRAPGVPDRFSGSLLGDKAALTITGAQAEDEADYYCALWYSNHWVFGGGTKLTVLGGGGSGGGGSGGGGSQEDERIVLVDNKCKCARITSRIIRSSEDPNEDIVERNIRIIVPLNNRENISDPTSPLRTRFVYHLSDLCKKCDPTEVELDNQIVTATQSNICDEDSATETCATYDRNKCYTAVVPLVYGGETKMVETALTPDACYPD
B8: IGM #F-b-J*-H1 (bispecific antibody)
VH: QVQLQESGPGLVKPSQSLSLTCSVTDYSITSGYYWNWIRQFPGNKLEWMGYISYDGSNNYNPSLKNRISITRDTSKNQFFLKLSSVTTEDTATYYCSRGEGFYFDSWGQGTTLTVSS
VL: DIMMSQSPSSLAVSVGEKFTMTCKSSQSLFFGSTQKNYLAWYQQKPGQSPKLLIYWASTRESGVPDRFTGSGSGTDFTLAISSVMPEDLAVYYCQQYYNYPWTFGGGTKLEIK
J-chain: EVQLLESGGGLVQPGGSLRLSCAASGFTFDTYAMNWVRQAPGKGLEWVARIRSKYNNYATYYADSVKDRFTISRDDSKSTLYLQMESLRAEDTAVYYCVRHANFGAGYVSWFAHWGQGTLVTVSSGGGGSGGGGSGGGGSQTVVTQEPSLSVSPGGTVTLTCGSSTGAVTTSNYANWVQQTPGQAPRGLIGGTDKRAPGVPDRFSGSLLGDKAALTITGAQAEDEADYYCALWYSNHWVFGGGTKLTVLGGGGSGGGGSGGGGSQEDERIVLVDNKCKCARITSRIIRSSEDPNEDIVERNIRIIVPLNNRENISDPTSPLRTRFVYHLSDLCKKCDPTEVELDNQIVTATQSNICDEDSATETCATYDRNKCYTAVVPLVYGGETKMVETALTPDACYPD
notes: IgM pentamer with a modified J-chain
B9: IGM #C-b-J*-H1 (bispecific antibody)
VH: QVQLQQPGAELVRPGASVKLSCKASGYTFTSYWMNWVKQRPDQGLEWIGRIDPYDSETHYNQKFKDKAILTVDKSSSTAYMQLSSLTSEDSAVYYCARGNWDDYWGQGTTLTVSS
VL: DVQITQSPSYLAASPGETITINCRASKSISKDLAWYQEKPGKTNKLLIYSGSTLQSGIPSRFSGSGSGTDFTLTISSLEPEDFAMYYCQQHNKYPYTFGGGTKLEIK
J-chain: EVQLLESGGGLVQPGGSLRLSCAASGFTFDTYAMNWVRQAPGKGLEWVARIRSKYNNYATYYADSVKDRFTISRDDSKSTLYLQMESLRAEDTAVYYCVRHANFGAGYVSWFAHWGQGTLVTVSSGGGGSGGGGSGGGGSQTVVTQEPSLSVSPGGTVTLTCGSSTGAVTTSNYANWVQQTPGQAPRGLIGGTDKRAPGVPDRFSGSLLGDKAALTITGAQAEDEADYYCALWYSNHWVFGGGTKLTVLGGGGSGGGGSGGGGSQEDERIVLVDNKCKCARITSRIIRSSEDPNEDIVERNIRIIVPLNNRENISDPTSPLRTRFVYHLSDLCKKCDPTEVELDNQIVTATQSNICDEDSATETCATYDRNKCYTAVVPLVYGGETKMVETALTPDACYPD

Tests used:
[1] = biological target: recombinant human CD3ε protein (Acro Biosystems, CDE-H5256-100) (human, UniProt P07766 23-126); assay: ELISA on plate-coated recombinant human CD3ε
Method: (§1) 96-well white polystyrene ELISA plates (Pierce 15042) were coated with 100 μL per well of 0.5 μg/mL recombinant human CD123 protein (Sino Biological 10518-H08H-50) or recombinant human CD3ε protein (Acro Biosystems, CDE-H5256-100) overnight at 4° C. Plates were then washed 5 times with 0.05% PBS-Tween and blocked with 2% BSA-PBS. After blocking, 100 μL of serial dilutions of CD123 IgM or IgG, standards, and controls were added to the wells and incubated at room temperature for 2 hours. The plates were then washed 10 times and incubated with HRP conjugated mouse anti-human kappa (Southern Biotech, 9230-05. 1:6000 diluted in 2% BSA-PBS) for 30 min. After 10 final washes using 0.05% PBS-Tween, the plates were read out using SuperSignal chemiluminescent substrate (ThermoFisher, 37070). Luminescent data were collected on an EnVision plate reader (Perkin-Elmer) and analyzed with GraphPad Prism using a 4-parameter logistic model.

[2] = biological target: T1, recombinant human CD123 protein (Sino Biological 10518-H08H-50) (human, UniProt P26951 19-305); assay: ELISA on plate-coated recombinant human CD123, as in Example 2
T1 construct: also called IL-3 receptor alpha chain; IL-3Rα
T1 sequence (looked up): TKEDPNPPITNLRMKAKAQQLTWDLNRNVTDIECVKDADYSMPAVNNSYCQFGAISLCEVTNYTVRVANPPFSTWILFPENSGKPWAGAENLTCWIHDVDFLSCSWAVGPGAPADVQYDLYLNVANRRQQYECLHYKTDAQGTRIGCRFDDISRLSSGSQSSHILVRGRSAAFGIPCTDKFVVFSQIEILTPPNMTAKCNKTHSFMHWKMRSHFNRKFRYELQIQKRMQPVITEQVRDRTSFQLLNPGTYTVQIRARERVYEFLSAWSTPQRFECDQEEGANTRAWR
Method: as §1

[3] = biological target: T1, recombinant human CD123 protein (Sino …); assay: ELISA on plate-coated recombinant human CD123
Method: as §1

[4] = biological target: T2, CD123 on AML cells (Kg-1a, MOLM-13, MV4-11, THP-1, PL21) (UniProt P26951 19-378); assay: cell-based or functional assay
[5] = biological target: T2, CD123 on AML cells (Kg-1a, MOLM-13, …); assay: cell-based or functional assay; remark: listed apart in the source

recombinant human CD3ε protein (Acro Biosystems, CDE-H5256-100), sequence (P07766 23-126 limits assumed): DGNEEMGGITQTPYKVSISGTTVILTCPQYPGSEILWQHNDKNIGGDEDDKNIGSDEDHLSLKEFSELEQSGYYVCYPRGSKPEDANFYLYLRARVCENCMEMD

| Binder | binding result [1] | EC50 [2] [nM] | binding result [3] | T Cell-Directed Killing EC50 (pM), MV411, Strong Donor T cells [5] [pM] | T Cell-Directed Killing EC50 (pM), MV411, Weak Donor T cells [5] [pM] | T Cell-Directed Killing EC50 (pM), PL21, Strong Donor T cells [5] [pM] | T Cell-Directed Killing EC50 (pM), THP-1, Strong Donor T cells [5] [pM] | also measured |
| --- | --- | --- | --- | --- | --- | --- | --- | --- |
| B1 | binds |  |  |  |  |  |  |  |
| B2 |  | 0.198 |  |  |  |  |  |  |
| B3 | no binding |  | binds |  |  |  |  |  |
| B4 | no binding |  | binds |  |  |  |  |  |
| B5 | binds |  |  |  |  |  |  | T cell-directed killing of MV4-11 cells (luciferase), EC50 [4]: 0.0136 nM; T cell-directed killing of THP-1 cells (luciferase), EC50 [4]: 0.0111 nM |
| B6 | binds |  | binds |  |  |  |  |  |
| B7 |  | 0.298 |  | 41.2 | 35.3 | 4.9 | 12.9 | T Cell-Directed Killing EC50 (pM), PL21, Weak Donor T cells [5]: 227 pM; T Cell-Directed Killing EC50 (pM), THP-1, Weak Donor T cells [5]: 46.2 pM |
| B8 |  | 0.53 |  | 273 | 1080 | 102 | 66.3 |  |
| B9 |  | 0.354 |  | 0.1 | 528 | 147 | 104 | T Cell-Directed Killing EC50 (pM), THP-1, Weak Donor T cells [5]: 990 pM |
